Assay results: PMC5476825, “Towards repurposing the yeast peroxisome for compartmentalizing heterologous metabolic pathways” (Nature Communications, 2016)
Primed or numbered codes have the meaning given here. Ends that are not written are not given here. 5FAM′ = 5-carboxyfluorescein

What was measured:
[1] = target: T1, His6-Pex5c, C-terminal fragment (residues 295-612) of S. cerevisiae PEX5 (S. cerevisiae, UniProt P35056 295-612); test: fluorescence polarisation; direct titration: His6-Pex5C from 6.5 uM downward in twofold increments against 20 nM 5FAM-…; 50 mM HEPES pH 7.4, 100 mM NaCl, 0.05% Tween-20; equilibrated 16 h at 4 °C; anisotropy converted to fraction bound; details: both partners purified
T1 construct: Pex5p (PEX5), PTS1 import receptor, S. cerevisiae, C-terminal fragment residues 295-612; Plasmid was a gift of Brooke M. Gardner; also called Pex5p C-terminal fragment; C-terminal truncation of Pex5p; not shown: His6, N-terminal, kept
T1 sequence (looked up): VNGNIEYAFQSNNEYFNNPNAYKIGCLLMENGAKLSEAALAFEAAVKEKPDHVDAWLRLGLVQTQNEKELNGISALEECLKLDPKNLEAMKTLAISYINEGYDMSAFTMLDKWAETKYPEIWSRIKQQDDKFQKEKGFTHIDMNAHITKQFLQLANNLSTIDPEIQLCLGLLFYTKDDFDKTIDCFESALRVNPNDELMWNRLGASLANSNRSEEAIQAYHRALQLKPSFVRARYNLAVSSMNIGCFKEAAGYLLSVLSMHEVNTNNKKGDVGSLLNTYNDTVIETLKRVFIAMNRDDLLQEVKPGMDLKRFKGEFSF

[2] = target: T1, His6-Pex5c, C-terminal fragment …; test: fluorescence polarisation; competition: 375 nM Pex5c and 20 nM 5FAM-…, unlabelled … (4 mM to 3.8 nM) or … (0.5 mM to 0.47 nM) added; 50 mM HEPES pH 7.4, 100 mM NaCl, 0.05% Tween-20; equilibrated 16 h at 4 °C; fit with equation 17 of Roehrl et al.; details: both partners purified

B1: 5-Carboxyfluorescein-LGRGRRSKL (peptide)
peptide: {5FAM′}-LGRGRRSKL
notes: ePTS1: linker LGRGRR selected from a randomized six-residue linker library, followed by the canonical PTS1 SKL; also called fluorescein-tagged ePTS1 peptide; source: synthetic peptide, bought: Elim Biopharmaceuticals Inc
With B1 the Kd [1] was 355 ± 6.38 nM.

B2: ePTS1 peptide (LGRGRRSKL) (peptide)
peptide: LGRGRRSKL
notes: ePTS1: linker LGRGRR selected from a randomized six-residue linker library, followed by the canonical PTS1 SKL; also called enhanced PTS1; source: synthetic peptide, bought: Elim Biopharmaceuticals Inc
B2 gave a Kd [2] of 0.8 ± 0.1 µM.

B3: PTS1 peptide (DELYKGSKL) (peptide)
peptide: DELYKGSKL
notes: peptide that results from fusion of the canonical PTS1 (SKL) to the C-terminus of YFP; source: synthetic peptide, bought: Elim Biopharmaceuticals Inc
With B3 the Kd [2] was 176 ± 17.3 µM.
